Measurements published in PMC13423800, “De novo design of potent CRISPR–Cas13 inhibitors” (Nature Chemical Biology, 2024).

T1: LbuCas13a (Leptotrichia buccalis, UniProt C7NBY4)
T1 sequence: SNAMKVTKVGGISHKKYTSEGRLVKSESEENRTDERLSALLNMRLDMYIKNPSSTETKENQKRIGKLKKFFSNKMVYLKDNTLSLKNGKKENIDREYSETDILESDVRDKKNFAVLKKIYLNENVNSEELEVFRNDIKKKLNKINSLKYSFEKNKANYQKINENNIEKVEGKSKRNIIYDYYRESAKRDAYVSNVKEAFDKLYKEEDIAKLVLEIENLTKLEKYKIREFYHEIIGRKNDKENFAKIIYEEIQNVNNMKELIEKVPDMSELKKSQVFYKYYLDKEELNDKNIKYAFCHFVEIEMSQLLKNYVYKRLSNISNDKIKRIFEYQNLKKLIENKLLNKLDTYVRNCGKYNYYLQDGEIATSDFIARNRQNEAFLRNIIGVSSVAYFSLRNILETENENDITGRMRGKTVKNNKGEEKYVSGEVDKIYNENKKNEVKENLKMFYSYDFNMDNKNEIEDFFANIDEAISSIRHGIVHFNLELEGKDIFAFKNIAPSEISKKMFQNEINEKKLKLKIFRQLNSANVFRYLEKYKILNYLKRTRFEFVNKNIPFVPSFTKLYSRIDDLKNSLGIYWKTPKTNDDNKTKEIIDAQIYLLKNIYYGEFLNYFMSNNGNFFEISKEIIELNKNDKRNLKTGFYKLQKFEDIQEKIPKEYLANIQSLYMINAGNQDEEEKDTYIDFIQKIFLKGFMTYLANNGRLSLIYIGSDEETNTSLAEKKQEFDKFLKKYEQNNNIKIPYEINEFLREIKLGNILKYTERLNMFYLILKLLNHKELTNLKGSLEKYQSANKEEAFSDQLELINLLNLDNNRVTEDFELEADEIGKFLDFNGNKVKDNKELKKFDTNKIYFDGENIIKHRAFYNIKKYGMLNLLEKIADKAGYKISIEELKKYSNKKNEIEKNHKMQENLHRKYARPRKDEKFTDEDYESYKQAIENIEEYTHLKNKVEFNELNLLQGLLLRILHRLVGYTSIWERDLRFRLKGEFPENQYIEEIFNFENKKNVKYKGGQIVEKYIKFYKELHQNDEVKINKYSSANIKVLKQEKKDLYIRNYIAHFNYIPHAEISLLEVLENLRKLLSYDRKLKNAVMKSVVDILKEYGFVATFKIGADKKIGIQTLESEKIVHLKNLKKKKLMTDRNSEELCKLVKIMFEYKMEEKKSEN

T2: Leptotrichia buccalis (Lbu) CRISPR–Cas13a (Leptotrichia buccalis, UniProt C7NBY4 1-1159)
T2 sequence: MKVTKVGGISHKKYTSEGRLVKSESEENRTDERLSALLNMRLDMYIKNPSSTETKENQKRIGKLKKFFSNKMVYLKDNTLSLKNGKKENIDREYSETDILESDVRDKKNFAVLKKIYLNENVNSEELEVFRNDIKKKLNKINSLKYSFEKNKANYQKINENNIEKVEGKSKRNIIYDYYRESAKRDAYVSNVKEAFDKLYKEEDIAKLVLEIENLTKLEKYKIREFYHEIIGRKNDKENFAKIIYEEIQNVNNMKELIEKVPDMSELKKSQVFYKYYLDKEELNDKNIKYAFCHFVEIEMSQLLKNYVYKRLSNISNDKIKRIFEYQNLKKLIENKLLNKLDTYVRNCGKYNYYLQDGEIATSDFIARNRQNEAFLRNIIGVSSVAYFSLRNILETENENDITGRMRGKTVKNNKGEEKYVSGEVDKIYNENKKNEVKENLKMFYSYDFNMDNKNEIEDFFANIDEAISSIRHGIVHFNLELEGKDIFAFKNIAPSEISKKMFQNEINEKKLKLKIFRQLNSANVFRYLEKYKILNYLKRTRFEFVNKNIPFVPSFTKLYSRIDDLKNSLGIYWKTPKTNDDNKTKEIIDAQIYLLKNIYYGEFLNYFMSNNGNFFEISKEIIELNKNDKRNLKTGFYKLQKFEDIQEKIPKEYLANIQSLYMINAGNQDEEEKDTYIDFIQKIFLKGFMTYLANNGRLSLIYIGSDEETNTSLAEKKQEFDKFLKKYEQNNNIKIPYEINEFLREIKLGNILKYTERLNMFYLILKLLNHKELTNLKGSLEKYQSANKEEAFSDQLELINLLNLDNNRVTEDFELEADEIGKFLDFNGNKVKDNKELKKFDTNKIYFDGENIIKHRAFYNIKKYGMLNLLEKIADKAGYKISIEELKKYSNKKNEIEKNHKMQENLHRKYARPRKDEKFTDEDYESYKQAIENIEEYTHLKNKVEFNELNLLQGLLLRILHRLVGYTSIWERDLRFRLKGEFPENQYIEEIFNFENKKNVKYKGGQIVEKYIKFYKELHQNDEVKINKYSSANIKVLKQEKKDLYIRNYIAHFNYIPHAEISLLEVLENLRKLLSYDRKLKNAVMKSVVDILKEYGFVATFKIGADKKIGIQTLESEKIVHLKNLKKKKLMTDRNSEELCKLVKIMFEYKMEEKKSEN


Legend:
LbuCas13a = target: T1, LbuCas13a; experiment: fluorescence polarization; no AIcr (control); 40 nM aRNA, RNP titrated; FP: 1x Cas13a cleavage buffer (composition not in the material), RNP twofold dilutions, 40 nM FAM-aRNA, 2 uM AIcrVIA, 2 h at 37 C; settings: protein: recombinant; tags: 6xHis-MBP, removed with TEV (SNA left at the N-terminus); label: 5'-6-FAM on aRNA; guide:target 24 bp; guide 5' repeat single-stranded/hairpin; target overhangs 5' C and 3' CC
[1] = target: T2, Leptotrichia buccalis (Lbu) …; experiment: cell-based or functional assay

Binder	binding result (LbuCas13a)	IC50 of inhibition of the LbuCas13a HEPN nuclease (velocity of reporter RNA cleavage by LbuCas13a–crRNA–aRNA against AIcrVIA concentration) [1] [nM]
FP crRNA / 5'-FAM aRNA (mixed, first C of the aRNA is deoxyribose (C*)) RNA: UAGACCACCCCAAAAAUGAAGGGGACUAAAACUUUCUUUCUUUCCUUUUUCUGCCG ?: CCGGCAGAAAAAGGAAAGAAAGAAACC	binds	–
AIcrVIA3 (designed binder) MAPKKYVVTVTIPVTDADLTVFLVVDIIVYAEKLGGTVTITAVKSENDSYSVTLEDLDKAAEELEKVGGSIVLTVTFDNKEKAEKVAEFAYLKAEEYNLKVDVEVKEEL	–	~7
AIcrVIA2 (designed binder) MNEKKEKARKEMKEIAEKAIKEIKKDPEKALEIAVKAVEEIGEIANESGDYKSGEENAWKVAEEYAKVTGDDDTAYDLMLAGDMIIDGKDAEEGYEILKEL	–	~7
